Results as given in the supplement of paper PMC9233669.
This sample holds only a part of the variants without activity.

Assays:
[1] = test system: biotinyl-Phe-oxazolone; assay: self-aminoacylation, catalytic enhancement (BFO) (fold over background); higher = more active; k-Seq, kA / k0A0; sequences stand for … in GGGAAUGGAUCCACAUCUACGAAUUC…UUCACUGCAGACUUGACGAAGCUG
Outline: (§1)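 Mutagenized RNA pools (0.43 μM; 21-nt variable region) were treated with 2–1250 μM of each biotinyl-aminoacyl-oxazolone. Conditions were 50 μL HEPES/NaCl/KCl/MgCl2/CaCl2 buffer, 5% acetonitrile, pH 6.9–7.0, room temperature, 90 minutes. Catalytic enhancement, the median kA relative to the uncatalyzed rate, was derived from streptavidin capture, qPCR and Illumina sequencing.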

[2] = test system: biotinyl-Ile-oxazolone; assay: self-aminoacylation, catalytic enhancement (BIO) (fold over background); higher = more active; k-Seq, kA / k0A0; sequences stand for … in GGGAAUGGAUCCACAUCUACGAAUUC…UUCACUGCAGACUUGACGAAGCUG
Outline: as §1

[3] = test system: biotinyl-Met-oxazolone; assay: self-aminoacylation, catalytic enhancement (BMO) (fold over background); higher = more active; k-Seq, kA / k0A0; sequences stand for … in GGGAAUGGAUCCACAUCUACGAAUUC…UUCACUGCAGACUUGACGAAGCUG
Outline: as §1

[4] = test system: biotinyl-Val-oxazolone; assay: self-aminoacylation, catalytic enhancement (BVO) (fold over background); higher = more active; k-Seq, kA / k0A0; sequences stand for … in GGGAAUGGAUCCACAUCUACGAAUUC…UUCACUGCAGACUUGACGAAGCUG
Outline: as §1

[5] = test system: biotinyl-Leu-oxazolone; assay: self-aminoacylation, catalytic enhancement (BLO) (fold over background); higher = more active; k-Seq, kA / k0A0; sequences stand for … in GGGAAUGGAUCCACAUCUACGAAUUC…UUCACUGCAGACUUGACGAAGCUG
Outline: as §1

[6] = test system: biotinyl-Trp-oxazolone; assay: self-aminoacylation, catalytic enhancement (BWO) (fold over background); higher = more active; k-Seq, kA / k0A0; sequences stand for … in GGGAAUGGAUCCACAUCUACGAAUUC…UUCACUGCAGACUUGACGAAGCUG
Outline: as §1

Sequence	self-aminoacylation [1]	self-aminoacylation [2]	self-aminoacylation [3]	self-aminoacylation [4]	self-aminoacylation [5]	self-aminoacylation [6]
AUUCACCUGGGUCAUCGCGUG [Fam2.2 aminoacylation ribozyme variant]	110	8.24	14.3	9.89	17.1	14.3
AUUCACCUAGGCCAUCCGGUG [Fam2.2 aminoacylation ribozyme variant]	32	4.25	5.26	4.6	5.83	5.92
CUACUCCAACCAAUCGGUCUG [Fam1A.1 aminoacylation ribozyme variant]	0.726	0.623	0.74	0.706	0.855	0.879
AAGUUUGCUAAUAGAGGCAAG [Fam3.1 aminoacylation ribozyme variant]	0.955	0.762	0.692	0.733	0.554	0.788
AUUACCCUUGUCAACGAGUGA [Fam2.1 aminoacylation ribozyme variant]	21.7	3.27	5.49	3.44	6.71	7.03
AAGUUUGGUAACAGUCGCAAG [Fam3.1 aminoacylation ribozyme variant]	1.24	1.07	0.994	0.987	0.857	0.693
AUUUACGUAGGUCAUCGGGUG [Fam2.2 aminoacylation ribozyme variant]	25.2	2.88	3.99	3.38	3.68	3.64
CUACUUCAAACUAGCGGUCUG [Fam1A.1 aminoacylation ribozyme variant]	1.25	0.932	0.547	0.803	0.79	0.732
CCACACCUCAAGCUAUCGGUC [Fam1B.1 aminoacylation ribozyme variant]	1.1	1.37	1.21	1.27	1.18	0.809
CCACACUUAAAGCAAUCGGUG [Fam1B.1 aminoacylation ribozyme variant]	26	2.75	3.87	2.42	4.31	4.42
GUUAACCUAGGUCAUCGGGUG [Fam2.2 aminoacylation ribozyme variant]	77.3	7.79	11.9	6.73	16.1	12.7
AUUCAACCAGGUCAUCGGGUG [Fam2.2 aminoacylation ribozyme variant]	58.9	4.64	5.83	4.22	7.64	6.24
AAGGUUCCUAAUAGUCGCAAG [Fam3.1 aminoacylation ribozyme variant]	1.62	1.61	1.64	1.39	1.5	1.43
AUUUCCCUGGUGAUCGAGUGA [Fam2.1 aminoacylation ribozyme variant]	44.4	2.77	5.5	3.15	5.66	6.58
CUAAUUCAAUCAAUCGGUCUG [Fam1A.1 aminoacylation ribozyme variant]	4.62	0.805	0.742	0.72	0.735	2.7
AUUACGCUGGUCAUCGAGUAA [Fam2.1 aminoacylation ribozyme variant]	0.975	1.6	1.43	1.53	1.26	1.8
AUUACCCUGGUCAUCGCGUGA [Fam2.1 aminoacylation ribozyme variant]	139	8.09	18.3	9.74	20.3	20.1
AUGUUUGCUAAAAGUCGCAAG [Fam3.1 aminoacylation ribozyme variant]	4.95	1.56	1.69	1.47	1.83	2.45
AUUACCCCGGUCAUAGAGUGA [Fam2.1 aminoacylation ribozyme variant]	43.1	4.47	7.91	3.96	8.34	8.65
AUUCACCUUGGUCAUCGGGAG [Fam2.2 aminoacylation ribozyme variant]	0.73	1.07	1.05	1.05	1.09	1.27
AUUACCCUGGUCAUAGAGUGA [Fam2.1 aminoacylation ribozyme variant]	54.8	4.72	10.4	4.94	9.8	11.9
AUUACCCUGUUCAGCGAGUGA [Fam2.1 aminoacylation ribozyme variant]	14.4	2.51	5.05	2.96	4.4	6.39
AUUUACCCAGGUCAUCGGGUG [Fam2.2 aminoacylation ribozyme variant]	44.3	3.28	5.07	3.55	6.46	3.66
AAGUUAUCUAAUAGUCGCAAG [Fam3.1 aminoacylation ribozyme variant]	2.66	1.51	1.32	1.18	1.53	1.36
AUUACCCUGGUCAUCGGGUGU [Fam2.1 aminoacylation ribozyme variant]	722	40.7	123	56.5	136	133
